Data reported in PMC6459735 (Journal of biomolecular structure & dynamics, 2019).

Molecular target: the molecule itself
Assay: crystal structure

B1: human Caprin-2 fragment (residues 199-329), dimerization domain (domain or fragment)
chain: GPSSPSQRREHMLKLEAEKKKLRTILQVQYVLQNLTQEHVQKDFKGGLNGAVYLPSKELDYLIKFSKLTCPERNESLSVEDQMEQSSLYFWDLLEGSEKAVVGTTYKHLKDLLSKLLNSGYFESIPVPKNAKEKEVP
modifications: Se-Met labelled (L-seleno-methionine in place of methionine) in the crystal used for the structure
stoichiometry N: 2
